Source: patent US20240132578A1

Tests used:
[1] = target: HIV-1 Env of isolate 92BR020 (Clade B) (HIV-1); experiment: cell-based or functional assay
[2] = target: HIV-1 Env of isolate 92UG005 (Clade D) (HIV-1); experiment: cell-based or functional assay
[3] = target: HIV-1 Env of isolate 93UG077 (Clade A) (HIV-1); experiment: cell-based or functional assay
[4] = target: HIV-1 Env of isolate APV-13 (Clade B) (HIV-1); experiment: cell-based or functional assay
[5] = target: HIV-1 Env of isolate IAVI-C18 (Clade C) (HIV-1); experiment: cell-based or functional assay
[6] = target: HIV-1 Env of isolate NL43 (positive control) (HIV-1); experiment: cell-based or functional assay
[7] = target: HIV-1 APV13 envelope glycoprotein (Env) on pseudovirus (HIV-1); experiment: cell-based or functional assay
[8] = target: HIV-1 JR-CSF Env N262A (HIV-1 (isolate JR-CSF)) (UniProt P20871); experiment: cell-based or functional assay
[9] = target: HIV-1 JR-CSF Env N332A (HIV-1 isolate JR-CSF) (UniProt P20871); experiment: cell-based or functional assay
[10] = target: HIV-1 JR-CSF Env Q337A (HIV-1 isolate JR-CSF) (UniProt P20871); experiment: cell-based or functional assay
[11] = target: HIV-1 JR-CSF Env R327A (HIV-1 isolate JR-CSF) (UniProt P20871); experiment: cell-based or functional assay
[12] = target: HIV-1 JR-CSF Env S387A (HIV-1 isolate JR-CSF) (UniProt P20871); experiment: cell-based or functional assay
[13] = target: HIV-1 JR-CSF Env T297A (HIV-1 (isolate JR-CSF, clade B)) (UniProt P20871); experiment: cell-based or functional assay
[14] = target: HIV-1 JR-CSF Env T341A (HIV-1 isolate JR-CSF) (UniProt P20871); experiment: cell-based or functional assay
[15] = target: HIV-1 JRFL envelope glycoprotein (Env) on pseudovirus (HIV-1); experiment: cell-based or functional assay
[16] = target: HIV-1 MGRM-A-010 envelope glycoprotein (Env) on pseudovirus (HIV-1); experiment: cell-based or functional assay
[17] = target: HIV-1 MGRM-C-026 envelope glycoprotein (Env) on pseudovirus (HIV-1); experiment: cell-based or functional assay
[18] = target: HIV-1 MGRM-C-028 envelope glycoprotein (Env) on pseudovirus (HIV-1); experiment: cell-based or functional assay
[19] = target: HIV-1 MGRM-D-018 envelope glycoprotein (Env) on pseudovirus (HIV-1); experiment: cell-based or functional assay
[20] = target: JR-FL GP120 ΔV3 (HIV-1 JR-FL); experiment: ELISA, antigen-coated wells, mAb titrated; EC50 by nonlinear regression
[21] = target: HIV-1 93IN905 envelope protein (Env) on pseudotyped virus (HIV-1 strain 93IN905); experiment: cell-based or functional assay
[22] = target: HIV-1 IAVI_C22 envelope protein (Env) on pseudotyped virus (HIV-1 strain IAVI C22); experiment: cell-based or functional assay
[23] = target: HIV-1 JR-CSF envelope protein (Env) on pseudotyped virus (HIV-1 isolate JR-CSF) (UniProt P20871); experiment: cell-based or functional assay
[24] = target: HIV-1 JR-CSF Env F317A (HIV-1 (isolate JR-CSF, clade B)) (UniProt P20871); experiment: cell-based or functional assay
[25] = target: HIV-1 JR-CSF Env I309A (HIV-1 (isolate JR-CSF, clade B)) (UniProt P20871); experiment: cell-based or functional assay
[26] = target: HIV-1 MGRM-AG-005 Env (HIV-1); experiment: cell-based or functional assay
[27] = target: HIV-1 envelope glycoprotein (Env) of isolate 92BR020, on pseudovirus (HIV-1); experiment: cell-based or functional assay
[28] = target: HIV-1 envelope glycoprotein (Env) of isolate 92WR026, subtype A (HIV-1); experiment: cell-based or functional assay
[29] = target: HIV-1 envelope glycoprotein (Env) of isolate MG RM-A-002, subtype A (HIV-1); experiment: cell-based or functional assay
[30] = target: HIV-1 envelope glycoprotein (Env) of isolate MGRM-Chronic-B-010, on pseudovirus (HIV-1); experiment: cell-based or functional assay
[31] = target: HIV-1 Env of isolate 92UG024 (subtype D) (HIV-1); experiment: cell-based or functional assay
[32] = target: HIV-1 Env of isolate CAAN.A2 (subtype B), on pseudovirus (HIV-1); experiment: cell-based or functional assay
[33] = target: HIV-1 Env of isolate MG RM-D-002 (subtype D) (HIV-1); experiment: cell-based or functional assay
[34] = target: HIV-1 Env of isolate MG RM-D-003 (subtype D) (HIV-1); experiment: cell-based or functional assay
[35] = target: HIV-1 Env of isolate MG RM-D-024 (subtype D) (HIV-1); experiment: cell-based or functional assay
[36] = target: HIV-1 Env of isolate MGRM-Chronic-B-010 (subtype B), on pseudovirus (HIV-1); experiment: cell-based or functional assay
[37] = target: HIV-1 Env of isolate MGRM-F1-004 (subtype F) (HIV-1); experiment: cell-based or functional assay
[38] = target: HIV-1 envelope glycoprotein (Env) of isolate 92RW008 (HIV-1); experiment: cell-based or functional assay
[39] = target: HIV-1 envelope glycoprotein (Env) of isolate 92UG031 (HIV-1); experiment: cell-based or functional assay
[40] = target: HIV-1 envelope glycoprotein (Env) of isolate MG RM-A-007 (HIV-1); experiment: cell-based or functional assay

Substance: b12 (antibody)
- IC90 (neutralization of pseudovirus) [1]: > 50 µg/mL
- IC90 (neutralization of pseudovirus) [2]: > 50 µg/mL
- IC90 (neutralization of pseudovirus) [3]: > 50 µg/mL
- IC90 (neutralization of pseudovirus) [4]: > 50 µg/mL
- IC90 (neutralization of pseudovirus) [5]: > 50 µg/mL
- IC90 (neutralization of pseudovirus) [6]: 0.28 µg/mL

Substance: 5343_B08 (PGT-135) (antibody)
- Neutralization IC80 [7]: > 10 µg/mL
- Neutralization IC90 [7]: > 10 µg/mL
- Neutralization IC95 [7]: > 10 µg/mL
- neutralization IC50 [7]: 0.545 µg/mL
- Fold IC50 increase relative to wild-type [8]: 2.1 fold
- Fold IC50 increase relative to wild-type [9]: > 250 fold
- Fold IC50 increase relative to wild-type [10]: 2.1 fold
- Fold IC50 increase relative to wild-type [11]: 0.67 fold
- Fold IC50 increase relative to wild-type [12]: 0.6 fold
- Fold IC50 increase relative to wild-type [13]: > 30 fold
- Fold IC50 increase relative to wild-type [14]: 0.6 fold
- Neutralization IC80 [15]: > 10 µg/mL
- Neutralization IC90 [15]: > 10 µg/mL
- Neutralization IC95 [15]: > 10 µg/mL
- neutralization IC50 [15]: > 10 µg/mL
- Neutralization IC80 [16]: > 10 µg/mL
- Neutralization IC90 [16]: > 10 µg/mL
- Neutralization IC95 [16]: > 10 µg/mL
- neutralization IC50 [16]: > 10 µg/mL
- Neutralization IC80 [17]: 0.0562 µg/mL
- Neutralization IC90 [17]: 0.139 µg/mL
- Neutralization IC95 [17]: 0.331 µg/mL
- neutralization IC50 [17]: 0.0123 µg/mL
- Neutralization IC80 [18]: > 10 µg/mL
- Neutralization IC90 [18]: > 10 µg/mL
- Neutralization IC95 [18]: > 10 µg/mL
- neutralization IC50 [18]: 2.16 µg/mL
- Neutralization IC80 [19]: 0.2 µg/mL
- Neutralization IC90 [19]: > 10 µg/mL
- Neutralization IC95 [19]: > 10 µg/mL
- neutralization IC50 [19]: 0.0433 µg/mL
- EC50 [20]: 0.2 µg/mL

Substance: 1443_C16 (PG16) (TCN-116) (antibody)
- IC50, Neutralizing Antibody Assay, Virus/Ab Incubation 1 hour [21]: 0.33 µg/mL
- IC50, Neutralizing Antibody Assay, Virus/Ab Incubation 18 hour [21]: 0.255 µg/mL
- IC90 (neutralization of pseudovirus) [1]: > 50 µg/mL
- IC90 (neutralization of pseudovirus) [2]: > 50 µg/mL
- IC90 (neutralization of pseudovirus) [3]: > 50 µg/mL
- IC90 (neutralization of pseudovirus) [4]: > 50 µg/mL
- IC90 (neutralization of pseudovirus) [5]: 0.207 µg/mL
- IC90 (neutralization of pseudovirus) [6]: > 50 µg/mL
- IC50, Neutralizing Antibody Assay, Virus/Ab Incubation 1 hour [22]: 0.114 µg/mL
- IC50, Neutralizing Antibody Assay, Virus/Ab Incubation 18 hour [22]: 0.106 µg/mL
- IC50, Neutralizing Antibody Assay, Virus/Ab Incubation 1 hour [23]: < 2.5 ng/mL
- IC50, Neutralizing Antibody Assay, Virus/Ab Incubation 18 hour [23]: < 2.5 ng/mL

Substance: 4858_P08 (PGT-123) (antibody)
- Fold IC50 increase relative to wild-type [24]: 3.1 fold
- Fold IC50 increase relative to wild-type [25]: 1.6 fold
- Fold IC50 increase relative to wild-type [9]: > 200 fold
- Fold IC50 increase relative to wild-type [13]: 0.3 fold
- Fold IC50 increase relative to wild-type [14]: 0.3 fold
- IC50, pseudovirus neutralization [26]: 0.104 µg/mL
- IC50, pseudovirus neutralization [27]: 8 ng/mL
- IC50, pseudovirus neutralization [28]: 0.012 µg/mL
- IC50, pseudovirus neutralization [29]: 0.011 µg/mL
- IC50, pseudovirus neutralization [30]: 9 ng/mL

Substance: PGV04 (antibody)
- IC50 (µg/mL), pseudovirus neutralization [31]: 0.201 µg/mL
- IC50, single-round pseudovirus neutralization [32]: 2.26 µg/mL
- IC50 (µg/mL), pseudovirus neutralization [33]: 0.322 µg/mL
- IC50 (µg/mL), pseudovirus neutralization [34]: > 50 µg/mL
- IC50 (µg/mL), pseudovirus neutralization [35]: > 50 µg/mL
- IC50, single-round pseudovirus neutralization [36]: 0.744 µg/mL
- IC50 (µg/mL), pseudovirus neutralization [37]: 0.58 µg/mL
- IC50 [38]: 14 ng/mL
- IC50 [39]: 4.46 µg/mL
- IC50 [40]: 7.21 µg/mL

Substance: 1496_C09 (PG9) (TCN-109) (antibody)
- IC50, Neutralizing Antibody Assay, Virus/Ab Incubation 1 hour [21]: 0.144 µg/mL
- IC50, Neutralizing Antibody Assay, Virus/Ab Incubation 18 hour [21]: 0.0619 µg/mL
- IC50 (µg/mL), pseudovirus neutralization [31]: 1.86 µg/mL
- IC50, single-round pseudovirus neutralization [32]: 19.3 µg/mL
- IC90 (neutralization of pseudovirus) [5]: 0.866 µg/mL
- IC50 (µg/mL), pseudovirus neutralization [33]: 0.021 µg/mL
- IC50 (µg/mL), pseudovirus neutralization [34]: 0.033 µg/mL
- IC50 (µg/mL), pseudovirus neutralization [35]: 0.038 µg/mL
- IC50, single-round pseudovirus neutralization [36]: 0.004 µg/mL
- IC50 (µg/mL), pseudovirus neutralization [37]: 0.175 µg/mL
- IC50, Neutralizing Antibody Assay, Virus/Ab Incubation 1 hour [22]: 24.9 µg/mL
- IC50, Neutralizing Antibody Assay, Virus/Ab Incubation 18 hour [22]: 2.11 µg/mL
- IC50, Neutralizing Antibody Assay, Virus/Ab Incubation 1 hour [23]: < 2.5 ng/mL
- IC50, Neutralizing Antibody Assay, Virus/Ab Incubation 18 hour [23]: < 2.5 ng/mL
- IC50 [38]: 6 ng/mL
- IC50 [39]: 3.6 µg/mL
- IC50 [40]: 1.06 µg/mL

Substance: 5147_N06 (PGT-130) (antibody)
- Fold IC50 increase relative to wild-type [24]: 17 fold
- Fold IC50 increase relative to wild-type [25]: > 77.9 fold
- Fold IC50 increase relative to wild-type [8]: 0.7 fold
- Fold IC50 increase relative to wild-type [12]: 0.7 fold
- IC50, pseudovirus neutralization [26]: 0.947 µg/mL
